For one substance, stoichiometry N results are on record in publication PMC2631105.

The target in the test is rabbit muscle fructose-1,6-bisphosphate aldolase A D128V (rabbit). Briefly: AUC.

Usually stoichiometry N stands for the number of molecules, sites or subunits per partner or assembly. In turn, “rabbit muscle fructose-1,6-bisphosphate aldolase A D128V (enzyme)” registered a stoichiometry N of 2.
